Laboratory results: patent publication CN115710309A (INST PASTEUR SHANGHAI CAS, dated 2023)

B1: 单抗2G3 (antibody)
heavy: QVQLQQPGAELVKPGASVKMSCKASGYTFTTYTIHWLRQTPGQGLEWIGAIYPGIGDTSYNQSFKGKATLTADKSSSTAYMQLSSLTSEDSAVYYCARDGNYAPFTYWGQGTLVTVSAAKTTPPSVYPLAPGSAAQTNSMVTLGCLVKGYFPEPVTVTWNSGSLSSGVHTFPAVLQSDLYTLSSSVTVPSSTWPSETVTCNVAHPASSTKVDKKIVPRDCGCKPCICTVPEVSSVFIFPPKPKDVLTITLTPKVTCVVVDISKDDPEVQFSWFVDDVEVHTAQTQPREEQFNSTFRSVSELPIMHQDWLNGKEFKCRVNSAAFPAPIEKTISKTKGRPKAPQVYTIPPPKEQMAKDKVSLTCMITDFFPEDITVEWQWNGQPAENYKNTQPIMDTDGSYFVYSKLNVQKSNWEAGNTFTCSVLHEGLHNHHTEKSLSHSPGK
light: DIVMSQSPSSLAVSVGEKVTMSCKSSQSLLYSNNQKNYLAWYQQKPGQSPKLLIYWTSTRESGVPDRFTGSGSGTDFTLTINSVKAEDLAVYYCQQYYRYPLTVGAGTKLELKRADAAPTVSIFPPSSEQLTSGGASVVCFLNNFYPKDINVKWKIDGSERQNGVLNSWTDQDSKDSTYSMSSTLTLTKDEYERHNSYTCEATHKTSTSPIVKSFNRNEC
B2: 单抗8D3 (antibody, V domains shown)
VH: EVQLQQSGPELVKPGASVKISCKTSGYTFTEYTMYWVKQSHGKSLEWIGGINPNIGDTSYNQNFKGKATLTVDRSSSTAYMELRSLTSEDSAVYYCARDGYPYYYALDHWGQGTSVTVSS
VL: DIVMTQSQKFMSTSVGDRVSVTCKASQNVGTNVAWYQQKPGQSPKALIYSTSYRYSGVPDRFTGSGSGTDFTLTISNVQSEDLAEYFCQQYNSYPYTFGGGTKLEIKR

Experiments:
Test in all cases: cell-based or functional assay
[1] = target: SARS-CoV-2 B.1.351突变株S蛋白 (假病毒) (SARS-CoV-2, UniProt P0DTC2 14-1273)
[2] = target: SARS-CoV-2 B.1.617.2突变株S蛋白 (假病毒) (SARS-CoV-2, UniProt P0DTC2 14-1273)
[3] = target: SARS-CoV-2 B.1.617.1突变株S蛋白 (假病毒) (SARS-CoV-2, UniProt P0DTC2 14-1273)

Binder | 假病毒中和 IC50 [1] [ng/mL] | 假病毒中和 IC50 [2] [ng/mL] | 假病毒中和 IC50 [3] [ng/mL]
B1 | 4 | 84 | 1
B2 | 6 | 8 | 2
